Results reported in article PMC3777173.

Experiments:
[1] = target: EDAvidin (fusion protein between the extra domain A from fibronectin and streptavidin); assay: SDS-PAGE of the sample not boiled against boiled; purified EDAvidin, nondenatured against denatured (boiled), Coomassie blue
biotinylated ovalbumin = biotinylated ovalbumin (UniProt P01012); assay: SPR; ProteOn XPR36; OVA-biot covalently immobilised on a GLC chip (sulfo-NHS/EDC); EDAvidin in 2-fold dilutions from 100 nM, then (after regeneration with 2 μM biotin) streptavidin; PBS, 0.005% Tween 20, pH 7.4; 30 μL/min; referenced against nonbiotinylated OVA; Langmuir model
UniProt P01012, sequence (P01012 whole entry): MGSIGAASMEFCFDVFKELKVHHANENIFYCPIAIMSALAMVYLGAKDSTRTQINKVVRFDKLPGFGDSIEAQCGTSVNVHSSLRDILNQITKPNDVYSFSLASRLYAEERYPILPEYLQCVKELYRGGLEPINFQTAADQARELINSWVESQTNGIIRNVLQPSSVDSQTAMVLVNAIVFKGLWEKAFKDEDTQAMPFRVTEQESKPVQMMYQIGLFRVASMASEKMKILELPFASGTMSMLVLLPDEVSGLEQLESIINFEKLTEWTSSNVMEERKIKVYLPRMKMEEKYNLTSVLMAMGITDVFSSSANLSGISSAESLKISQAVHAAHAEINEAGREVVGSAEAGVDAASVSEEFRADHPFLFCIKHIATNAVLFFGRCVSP

EDAvidin (fusion protein between the extra domain A from fibronectin and streptavidin)
stoichiometry N [1]: 4 | Kd (biotinylated ovalbumin): 0.023 pM
